Here are results for two substances from article PMC9905677.

The target of assay [1] is rituximab-Fab (human). In words: NMR titration; 1H-15N HSQC peak intensity attenuation of the 15N-labeled protein (rituximab-Fc 120 μM, rituximab-Fab 240 μM, sFcγRIIIb 120 μM) on adding serum polyclonal IgG 120 μM, its Fab 240 μM or HSA 600 μM; 5 mM sodium phosphate, 50 mM NaCl, pH 7.4, 37°C.
Assay [2] has as its target soluble form of human FcγRIIIb (NA2 form) composed of the extracellular domains (human) (UniProt O75015). The assay is described as above.
UniProt O75015, sequence (O75015 17-200): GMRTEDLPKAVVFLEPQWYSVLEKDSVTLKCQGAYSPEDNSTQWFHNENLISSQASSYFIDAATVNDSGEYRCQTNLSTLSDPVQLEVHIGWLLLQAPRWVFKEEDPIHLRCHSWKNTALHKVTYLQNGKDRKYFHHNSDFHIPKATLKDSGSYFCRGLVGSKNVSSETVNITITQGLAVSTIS
The target in assay [3] is extracellular region of human FcγRIIIa (158V allele), bis-glycosylated (human) (UniProt P08637).

Regarding “human serum albumin (from UniProt P02768 25-609) (natural protein)”, the average level of HSQC peak intensity attenuation (Io-Ip)/Io in assay [1] was found to be 0.6; in assay [2], 0.41.
Regarding rituximab (antibody), the EC50 of the ADCC reporter assay (Jurkat/FcγRIIIa/NFAT-Luc effector cells, luciferase) in assay [3] turned out to be 0.02 µg/mL.
